Measured values: US20050048548A1 (NEW ENGLAND BIOLABS, published 2005)

Target: T1, MBP-BirA fusion (E. coli biotin ligase / biotin holoenzyme synthetase with N-terminal maltose binding protein) (E. coli, UniProt P0AEX9 27-392 = MBP; P06709 1-321, limits assumed)
T1 construct: also called BHS
Assay: phage ELISA on plate-coated MBP-BirA, anti-M13-HRP detection

B1: non-displaying M13 phage (no insert), without selenocysteine (other, bacteriophage M13, UniProt P69168 19-424, looked up)
chain: AETVESCLAKPHTENSFTNVWKDDKTLDRYANYEGCLWNATGVVVCTGDETQCYGTWVPIGLAIPENEGGGSEGGGSEGGGSEGGGTKPPEYGDTPIPGYTYINPLDGTYPPGTEQNPANPNPSLEESQPLNTFMFQNNRFRNRQGALTVYTGTVTQGTDPVKTYYQYTPVSSKAMYDAYWNGKFRDCAFHSGFNEDPFVCEYQGQSSDLPQPPVNAGGGSGGGSGGGSEGGGSEGGGSEGGGSEGGGSGGGSGSGDFDYEKMANANKGAMTENADENALQSDAKGKLDSVATDYGAAIDGFIGDVSGLANGNGATGDFAGSNSQMAQVGDGDNSPLMNNFRQYLPSLPQSVECRPFVFSAGKPYEFSIDCDKINLFRGVFAFLLYVATFMYVFSTFANILRNKES
notes: Control; whole phage, applied both after treatment with the biotinylating reagent and untreated; also called non-displaying phage
binding result: no binding
